B1: EHEE_rd2_0601 (parent)
chain: TYTYKLTDEEASRRAEDEWRNRGYDVRVRNNNGTWEVEVR

Variants of: B1
Assay: folding stability dG (cDNA display proteolysis); higher = more stable
Details: PBS, room temperature

Variant | folding stability dG [kcal/mol]
TYTYKLTDEEASRRAEDEWRNRQYDVRVRNNNGTWEVEVR | -0.624
TYTYKLTDEEASRRAEDEWRNRNYDVRVRNNNGTWEVEVR | -0.169
TYTYKLTDEEASRRAEDEWRNRMYDVRVRNNNGTWEVEVR | -0.97
TYTYKLTDEEASRRAEDEWRNRFYDVRVRNNNGTWEVEVR | -0.542
TYTYKLTDEEASRRAEDEWRNRYYDVRVRNNNGTWEVEVR | -0.588
TYTYKLTDEEASRRAEDEWRNRHYDVRVRNNNGTWEVEVR | -0.048
TYTYKLTDEEASRRAEDEWRNRWYDVRVRNNNGTWEVEVR | -0.693
TYTYKLTDEEASRRAEDEWRNRCYDVRVRNNNGTWEVEVR | 1.14
TYTYKLTDEEASRRAEDEWRERGYDVRVRNNNGTWEVEVR | 1.34
TYTYKLTDEEASRRAEDEWRLRGYDVRVRNNNGTWEVEVR | 1.65
TYTYKLTDEEASRRAEDEWRHRGYDVRVRNNNGTWEVEVR | 1.24
TYTYKLTDEEASRRAEDEWRVRGYDVRVRNNNGTWEVEVR | 1.1
TYTYKLTDEEASRRAEDEWRGRGYDVRVRNNNGTWEVEVR | 1.42
TYTYKLTDEEASRRAEDEWRDRGYDVRVRNNNGTWEVEVR | 1.16
TYTYKLTDEEASRRAEDEWRQRGYDVRVRNNNGTWEVEVR | 1.65
TYTYKLTDEEASRRAEDEWRFRGYDVRVRNNNGTWEVEVR | 1.04
TYTYKLTDEEASRRAEDEWRARGYDVRVRNNNGTWEVEVR | 1.82
TYTYKLTDEEASRRAEDEWRWRGYDVRVRNNNGTWEVEVR | 0.672
TYTYKLTDEEASRRAEDEWRIRGYDVRVRNNNGTWEVEVR | 1.22
TYTYKLTDEEASRRAEDEWRRRGYDVRVRNNNGTWEVEVR | 1.96
TYTYKLTDEEASRRAEDEWRYRGYDVRVRNNNGTWEVEVR | 0.831

Variant | folding stability dG [kcal/mol]
TYTYKLTDEEASRRAEDEWRMRGYDVRVRNNNGTWEVEVR | 1.58
TYTYKLTDEEASRRAEDEWRSRGYDVRVRNNNGTWEVEVR | 1.82
TYTYKLTDEEASRRAEDEWRTRGYDVRVRNNNGTWEVEVR | 1.31
TYTYKLTDEEASRRAEDEWRKRGYDVRVRNNNGTWEVEVR | 1.97
TYTYKLTDEEASRRAEDEWRNRGYDVPVRNNNGTWEVEVR | -0.472
TYTYKLTDEEASRRAEDEWRNRGYDVVVRNNNGTWEVEVR | 2.05
TYTYKLTDEEASRRAEDEWRNRGYDVHVRNNNGTWEVEVR | 1.56
TYTYKLTDEEASRRAEDEWRNRGYDVYVRNNNGTWEVEVR | 1.52
TYTYKLTDEEASRRAEDEWRNRGYDVEVRNNNGTWEVEVR | 1.6
TYTYKLTDEEASRRAEDEWRNRGYDVNVRNNNGTWEVEVR | 1.36
TYTYKLTDEEASRRAEDEWRNRGYDVQVRNNNGTWEVEVR | 1.56
TYTYKLTDEEASRRAEDEWRNRGYDVAVRNNNGTWEVEVR | 1.42
TYTYKLTDEEASRRAEDEWRNRGYDVTVRNNNGTWEVEVR | 2.03
TYTYKLTDEEASRRAEDEWRNRGYDVIVRNNNGTWEVEVR | 2.09
TYTYKLTDEEASRRAEDEWRNRGYDVWVRNNNGTWEVEVR | 1.27
TYTYKLTDEEASRRAEDEWRNRGYDVGVRNNNGTWEVEVR | 0.575
TYTYKLTDEEASRRAEDEWRNRGYDVCVRNNNGTWEVEVR | 1.69
TYTYKLTDEEASRRAEDEWRNRGYDVMVRNNNGTWEVEVR | 1.49
TYTYKLTDEEASRRAEDEWRNRGYDVDVRNNNGTWEVEVR | 1.07
TYTYKLTDEEASRRAEDEWRNRGYDVLVRNNNGTWEVEVR | 1.68
TYTYKLTDEEASRRAEDEWRNRGYDVFVRNNNGTWEVEVR | 1.67

Variant | folding stability dG [kcal/mol]
TYTYKLTDEEASRRAEDEWRNRGYDVKVRNNNGTWEVEVR | 1.6
TYTYKLTDEEASRRAEDEWRNRGYDVSVRNNNGTWEVEVR | 1.69
TYTYKLTDEEASRRAEDEWRNRGYMVRVRNNNGTWEVEVR | 1.36
TYTYKLTDEEASRRAEDEWRNRGYKVRVRNNNGTWEVEVR | 1.16
TYTYKLTDEEASRRAEDEWRNRGYWVRVRNNNGTWEVEVR | 1.53
TYTYKLTDEEASRRAEDEWRNRGYNVRVRNNNGTWEVEVR | 1.3
TYTYKLTDEEASRRAEDEWRNRGYSVRVRNNNGTWEVEVR | 1.3
TYTYKLTDEEASRRAEDEWRNRGYFVRVRNNNGTWEVEVR | 1.35
TYTYKLTDEEASRRAEDEWRNRGYEVRVRNNNGTWEVEVR | 1.82
TYTYKLTDEEASRRAEDEWRNRGYRVRVRNNNGTWEVEVR | 1.23
TYTYKLTDEEASRRAEDEWRNRGYIVRVRNNNGTWEVEVR | 1.76
TYTYKLTDEEASRRAEDEWRNRGYQVRVRNNNGTWEVEVR | 1.64
TYTYKLTDEEASRRAEDEWRNRGYPVRVRNNNGTWEVEVR | 0.219
TYTYKLTDEEASRRAEDEWRNRGYAVRVRNNNGTWEVEVR | 1.25
TYTYKLTDEEASRRAEDEWRNRGYTVRVRNNNGTWEVEVR | 1.46
TYTYKLTDEEASRRAEDEWRNRGYLVRVRNNNGTWEVEVR | 1.48
TYTYKLTDEEASRRAEDEWRNRGYHVRVRNNNGTWEVEVR | 1.56
TYTYKLTDEEASRRAEDEWRNRGYVVRVRNNNGTWEVEVR | 1.52
TYTYKLTDEEASRRAEDEWRNRGYYVRVRNNNGTWEVEVR | 1.27
TYTYKLTDEEASRRAEDEWRNRGYGVRVRNNNGTWEVEVR | 0.602
TYTYKLTDEEASRRAEDEWRNRGYDVRARNNNGTWEVEVR | 0.322
